# Target: carcinoembryonic antigen (CEA) (UniProt P06731 35-685)
# Assay: sandwich FLISA (antibody capture, aptamer nanoparticle probe); CEA on anti-CEA antibody plate; linear 0.01-20 ng/mL, LOD 7.6 pg/mL (assay values, not affinity); CEA capture 37 C 1 h, aptamer probe room temperature 1 h; washes in PBS 10 mM pH 7.4; probe blocked with 1% BSA; read-out with 4 mM OPD in 10 mM HAc-NaAc pH 5.5, 3 h, 565 nm
# Details: protein: commercial
# Sequence of carcinoembryonic antigen (CEA) (P06731 35-685): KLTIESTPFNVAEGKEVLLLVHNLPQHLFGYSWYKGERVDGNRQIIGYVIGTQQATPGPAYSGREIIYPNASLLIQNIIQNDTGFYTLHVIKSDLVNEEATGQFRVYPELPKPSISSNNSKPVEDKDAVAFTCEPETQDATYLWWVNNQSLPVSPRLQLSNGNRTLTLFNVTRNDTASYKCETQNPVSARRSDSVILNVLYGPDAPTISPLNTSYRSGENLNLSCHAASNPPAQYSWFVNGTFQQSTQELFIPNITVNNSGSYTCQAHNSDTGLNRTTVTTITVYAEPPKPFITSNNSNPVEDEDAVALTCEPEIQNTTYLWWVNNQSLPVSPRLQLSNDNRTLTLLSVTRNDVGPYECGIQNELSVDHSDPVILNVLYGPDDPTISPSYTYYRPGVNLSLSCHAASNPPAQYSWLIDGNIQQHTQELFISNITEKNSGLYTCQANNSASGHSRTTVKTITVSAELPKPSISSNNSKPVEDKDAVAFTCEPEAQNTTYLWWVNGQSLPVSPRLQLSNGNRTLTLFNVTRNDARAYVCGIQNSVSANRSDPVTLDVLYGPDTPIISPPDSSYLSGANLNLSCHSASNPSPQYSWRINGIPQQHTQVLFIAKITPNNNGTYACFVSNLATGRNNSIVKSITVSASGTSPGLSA
binder,measurement,value
"TTTTATACCAGCTTATTCAATT (ssDNA, 5'-NH2; coupled by glutaraldehyde to CP/ZIF-8/PDA nanoparticles) [CEA aptamer]",binding result,binds

# Source: article PMC9599728, “Polydopamine-Functionalized Copper Peroxide/ZIF-8 Nanoparticle-Based Fluorescence-Linked Immunosorbent Assay for the Sensitive Determination of Carcinoembryonic Antigen by Self-Supplied H2O2 Generatio”
